Assay results taken from a protein production outcome set (Wang et al. 2014).

Test: label from the status in PepcDB records

## MILAILQARMSSTRLPGKVLMPLQRQPMIVRQIERVARSKRIDKLVVATSDRPEDDAIEAAVRREGIAVFRGSLDNVQQRFIGALDAHPADHVVRLTADCPLADPTLIDATIDLCLSKGADYVSNTPEGHAHPKGTDVEVMTAAALRRAAAEATTKEAFEHVTWDLWNQPQRWTCAWLPCFPDQGAVRWTVDRPDDYAFVAAVYDALYPANRAFTSDDIRAFVAGRPDLQDYGGDRRALEHHHHHH
  protein production: failed

## SRIEERKAIIGLYNYAHEMTHGASDREYPRLGQMIVDYENPLKKMMEEFVPHSKSLSDALISLQMVYPRRNLSADQWRNAQLLSLISAPSTMLNPAQSDTMPCEYLSLDAMEKWIIFGFILCHGILNTDATALNLWKLALQSSSCLSLFRDEVFHIHKAAEDLFVNIRGYNKRINDIRECKEAAVSHAGSMHRERRKFLRSALKELATVLSDQPGLLGPKALFVFMALSFARDEIIWLLRHADNMPKKSADDFIDKHIAELIFYMEELRAHVRKYGPVMQRYYVQYLSGFDAVVLNELVQNLSVCPEDESIIMSSFVNTMTSLSVKQVEDGEVFDFRGMRLDWFRLQAYTSVSKASLGLADHRELGKMMNTIIFHTKMVDSLVEMLVETSDLSIFCFYSRAFEKMFQQCLELPSQSRYSIAFPLLCTHFMSCTHELCPEERHHIGDRSLSLCNMFLDEMAKQARNLITDICTEQCTLSDQLLPKHCAKTISQAVN
  protein production: failed

## MRPTPYLAPIPVRGRISRPQPKGLPVINMGYNELPYPPLPAIRAAMEETAERAQSYGSPHCDALRDALGAAHGLDPEQIVCGNGSEELLDVIARCFARPGDEILISEFGYIQFALTANRVGATLVKARERDNTSDVDALLAAVSEHTRLLFLANPNNPTGTMLEIDELSRLARDLPAQVVLVLDLAYGEFAAPDYCAAVHSLAANHENIVVTRTFSKAYGLAGARVGWCHAPAWMVPVLYAARGMGTVNALAQAGAVAGLADPAAIQERVDEIVSERARLTGALGQLGLVVTPSRTNFLMARFREGDAARTEALVEHLFEDAGIVVNRTREAGLEAFFRFSLSLPAHNDLLLDSIRRFIGQG
  protein production: failed

## EHIARRKAGDAAERLVKLIPAFCHHMPDYPDTQETCEAAVVKLKAGDIVLVKPGETIPVDGTVLEGSSAVNESMLTGESLPVAKMPSEKVTAGTLNTQSPLIIRTDRTGGGTRLSHIVRLLDRALAQKPRTAELAEQ
  protein production: failed

## MAKKRESPKLIKIKDAIKLINQQVSLIGIVLEQREPKQCRNNDWICTLRIIDDTYPSPGLTVNVFSKTLEQLPQIKNHDDMILFTRIKMQTFDSGERVNAACSRWVSSFALFEGVDFVCYQCSTNFHEEEALYKSAMDDLRKVFAGCSQVIKAMQSISYRTKPCSEVFSFLREIKIGKRFDLVCRILHADEDTSAVFVWDGTDAPPASILAKRSEEDKAFSSLSVHTLLSRDVLLSFPTVGTILRVHLSSHLFYRVKPGDWVKLYHLLCEVDRGSWVIKVTSSTKVHHLAQDDRLVEKIMRIYDKRLSSKLGHISFWCFPSPPGLTETDDNCAPFVTLMDIITFPKVTCKYRCIVRVVAAYPWQVEDFCSDENRRHHQVLLTLEDSTATLEAFLCNKDAEYFWGLGFQDTETLRKKRNWLLGIRESSNFVAPRNPPWIECCILSYYTNKADPWNTRLYRIFGTRLLH
  protein production: failed

## GDIEQAAGHVVDGLSHLEVHPDVPDGIRALRERGFRLVTMTNGSSDLSKRLLGRAGLADCFESHLDASGPQRWKPAQAAYQYVVEQVGVRLDEAVLVAVHPWDVDGAQRAGLGGAWLRRDAADYPQVMLPPTYTVGNLRELAETLA
  protein production: failed

## VSVGTHPTFENSPSGTVLTSPPDGSAVDRATDAARRVVDALLRTDRGNANLERVAEELNSIAGHLEEHAPAVAERLIDMWNGEGVTRHDPVTGPENALAPPVVLEGLSDGSVRGTVTLTIPYQGPPGHVHGGVSALLLDHVLGVANAWGGKAGMTAQLSTRYHRPTPLFEPLTLTGKLMSVDGRKITTAGDIRTADGQVCVSVEGLFVDKTVPRPR
  protein production: not failed

## MKKRIIFFLILLVSFRIFADYKSEYDNLLSARNIKGIAALLPKWEKAEPKNPELYIAYFNYYLLKGQRSTQSLDTYKKDNTNSLALVDQKTNKIAGYLNNNIWYEKEDVDKALSYLEKGLKFGKNRLDMYFGRIHILGEIGEYEKQSQKIIEVLKLGKEINHKWLWSMNEVIPSSESEHFFLISINEYYKNWLQKSSPQTLNAAEKTGEAQLKLYPKNIEVHNYLSLAYIGQGKFKEALNVLLKADKLANEDYVIIFNMGRCYEALKQYDKAKECYLRMKKNPNKQVQDMADQKLSELKKLTK
  protein production: failed

## KAKAAFFDIDGTLYREGLISEVFKKLIKYEIIDEEKWYKEVRPEFEKWDNRKGDYDDYLLKMTEIYVDALNGLSKSQVEFIASQVVNQKGERVYTYTRDRIKWHKERGHKIITISGSPIELVRNMAEKYGFDDYRGAEYLLDENDVYTGEVIPMWDSKSKERAVHELEAKYNIDLGESYAYGDTSGDLTMLKMVGNPVCINPTKELVKEILSDEEVKNKIRIIVERK
  protein production: not failed

## MEYIKPHKGFSTLIILGITLGIDLIFSLLSTFINTYIVLRILEIFIVFFNIYQLYYILKSLTLKYCYDNENFYVLWCFGIRRVTIPFKEIEAYNVSHGEIKGVKLWGYGRNFFALGTFSVNDIGIVNMFVTATKNVIYIKCNSSIYGISPEKCDEVKNFLEKRKLVLKNWTYEKRNKVSLSKDRHFDILIFLISIVILMVTIIPFILYLRGVMPHKMPLSFDSNFKPMIYGTSREFAFKHMMYGAYNMIIFFCIYYSAYFYARYSKKLAYRLMYISFLVAFIFLIFQFKIYVTYIH
  protein production: failed

## MCSIGVTALCSPAKFHHRREQSLIFTPTHLRNPNGFQFRWRKSRPFAPRLAQPDNFAPPLPLIRSSTSLLSSKDFVQMLARKAAILLVGSFVFLGFCSSKPALALPTATVVSQAELEDEKMFEKLLENEPENMEAMKAVVYKKMRRGKNEDAVKYVEKLMKLEPHEVEWKLLEALCYETMGELSKAKRLYKDILKEQPLLIRALHGLAMVMHKTHDTSVFDMLIEAMEVARQGNRVTEERNIQVLIGQMHIVEGQFEEGLKIFQQMVNDNPRDFRPYLCQGIVYSLMDKKEEAAQQFEIYWSLVPGEFPQKGFLDDVALAAQAKSRERLQNTFKAKFTQGR
  protein production: failed

## MSSAQFDHVTVIKKSNVYFGGLCISHTVQFEDGTKKTLGVILPTEQPLTFETHVPERMEIISGECRVKIADSTESELFRAGQSFYVPGNSLFKIETDEVLDYVCHLEG
  protein production: not failed

## MLGYVWLVEGRELMRWQELCTPAVICVGGVDPSAGAGITADVRTAENMGVRAYTVATAITFQGSGSYRGERWVDSADIIRQIESLSAEMEPAVAKIGLIRDSDTLSLVVDCLKKVFPSIRIVWDPVLRASADSSAGQADRFNLEDITALSRIDFITPNLPEARHLLGCEPDDETLLDFYRRSGVGLVLKGGHAGESVVTDRIVYDGRCEALRLLRGGTGKHGTGCAHSTAFAAALALEQEPFTAAGMAQLYVSRLRERASGLLAMHKDLPVDPVVRLMSEIDLQFITHRQPDLSELEEAEAVCRIGVRWVQLRMKEASDEEMLHTACAVKAVCRHHGALFVVNDRVEIARQVDADGVHLGKEDMAIVEARRILGSNKIIGRTCNTMEDVRRAYAEGADYVGIGPYRYTETKQRLAPVLGLEGYKAIAACMQAEGIRLPAFAIGGIEDADIPLIRDCGIGGIAVSGSLIRKIKKNLEHHHHHH
  protein production: failed

## MKVVPEKNAVRILWGRERGTRAMGAQRLLQELVEDKTRWMKWEGKRVELPDSPRSTFLLAFSPDRTLLASTHVNHNIYITEVKTGKCVHSLIGHRRTPWCVTFHPTISGLIASGCLDGEVRIWDLHGGSESWFTDSNNAIASLAFHPTAQLLLIATANEIHFWDWSRREPFAVVKTASEMERVRLVRFDPLGHYLLTAIVNPSNQQGDDEPEIPIDGTELSHYRQRALLQSQPVRRTPLLHNFLHMLSSRSSGIQVGEQSTVQDSATPSPPPPPPQPSTERPRTSAYIRLRQRVSYPTTVECCQHPGILCLCSRCAGTRVPSLLPHQDSVPPASARATTPSFSFVQTEPFHPPEQASSTQQDQGLLNRPSAFSTVQSSTAGNTLRNLSLGPTRRSLGGPLSSHPSRYHRELAPGLTGSEWTRTVLTLNSRSEVESMPPPRTSASSVSLLSVLRQQEGGSQASVYTSATEGRGFPSSGLATESDGGNGSSQNNSGNIRHELQCDLRRFFLEYDRLQELDQSLSGETPQTQQAQEMLNNNIESERPGPSHQPTPHSSENNSNLSRGHLNRCRACHNLLTFNNDTLRWERTTPNYSSGEASSSWHVSTTFEGMPPSGNQLPPLERTEGQMPNSSRLELSSSASSQEERTVGVAFNQETGHWERIYTQSSRSGTVSQEALHQDMPEESSEEDSLRRRLLESSLISLSRYDGAGSREHPIYPDPARLSPAAYYAQRMIQYLSRRDSIRQRSMRYQQNRLRSSTSSSSSDNQGPSVEGTDLEFEDFEDNGDRSRHRAPRNARMSAPSLGRFVPRRFLLPEYLPYAGIFHERGQPGLATHSSVNRVLAGAVIGDGQSAVASNIANTTYRLQWWDFTKFDLPEISNASVNVLVQNCKIYNDASCDISADGQLLAAFIPSSQRGFPDEGILAVYSLAPHNLGEMLYTKRFGKG
  protein production: failed

## MLKIYVVDNGGQWTHREWRVLRELGVDTKIVPNDIDSSELDGLDGLVLSGGAPNIDEELDKLGSVGKYIDDHNYPILGICVGAQFIALHFGASVVKAKHPEFGKTKVSVMHSENIFGGLPSEITVWENHNDEIINLPDDFTLAASSATCQVQGFYHKTRPIYATQFHPEVEHTQYGRDIFRNFIGICASYREIQKENFQH
  protein production: not failed

## MVEHATSETDLDRIVRMFDGANLIVHGFDGVIQRWTSGCEQLYGWSASEAVGNVVHDLLDTQFPAGVEELRTEVRDKGFWTGQVGHRRKDGVRLAIVTRWTVLELGDPDTLIIQSNNDVTLMQQVGDELRERQAHLQSILATVPDAMIVIDDKGCIASFSTAAEKLFGYSADEAIGQNVSMLMPSPDREAHDGYLDSYIRTGRRRIIGYGRVVVGLRKHGTTFPMELSVGEAVAGGKRTFTGFVRDLTSRHRIEAELRQSQKMEAVGQLTGGLAHDFNNLLAVIIGNLEMLEARLAEPGQLSLLREAQSAADDGARLTSQLLAFGRRQALAPTVLDVGALLGEFSDLVQRTLGDSVELRTIIPGRRLSAMADKAQLQSALLNLSINARDAMPAGGRLTIEISGVEIDADYVGMYPAIRPGRYVLISVTDTGTGMTSEVMERAFEPFFTTKPTGSGTGLGLSMVYGFAKQSAGHLQLYSEPGEGTTVRLFLPRADGGRDSHPDEQQVKDAPSPGTETILVVEDDARVRRVTISRLQTLGYSVIEATNGIDALKELEAGHDVALLFSDVAMPGMNGDELARKVRERWPRVKILLTSGFSEPHAAEKEIEAGAGWLKKPYTASEMSTRLRLLLDARHGSDSA
  protein production: failed

## MNIVSQLSPVTLSPELIARFTAIVGDKHALTDPLELEAYITEERNLYRGHSPLVLRPGSTEEVVAICKLANEARVALVPQGGNTGLVGGQTPHNGEVVISLKRMDKIREIDTSSNTITVEAGAILQRVQEKAAEVDRLFPLSLGAQGSCTIGGNLSTNAGGTAALAYGLARDMALGVEVVLADGRVMNLLSKLKKDNTGYDLRDLFIGAEGTLGIITAATLKLFPKPRAVETAFVGLQSPDDALKLLGIAQGEAAGNLTSFELIAETPLDFSVRHANNRDPLEARYPWYVLIELSSPRDDARAALESILERGFEDGIVVDAAIANSVQQQQAFWKLREEISPAQKPEGGSIKHDISVPVAAVPQFIEQANAAVVALIPGARPVPFGHLGDGNIHYNVSQPVGADKAEFLARWHDVSQVVFEVVLRLGGSISAEHGIGVMKRDELAEVKDKTAIELMRSIKALLDPHGIMNPGKVV
  protein production: not failed
